Substitutions are numbered along the chain they refer to.

B1: HAPC-14-6 (antibody, V domains shown)
VH: EVQLVESGGGLVQPGGSLRLSCAASGFTFSFYYLNWVRQAPGKGLEWVGDIRLKKNNYEKHYAESVKGRFTISRDDSKSITYLQMNSLRAEDTAVYYCAREGDYFDYWGQGTTVTVSS
VL: DIQLTQSPSSLSASVGDRVTITCRASESVDSFGATFMHWYQQKPGKAPKLLIYLASRLGSGVPSRFSGSGSGTDFTLTISSLQPEDFATYYCQQNNEDPYTFGQGTKLEIK
notes: Whole IgG, backbone hIgG1; also called HPAC 14-6; No. 6
B2: Humanized antibody 14 (HAPC-14) (antibody, V domains shown)
VH: B1 VH with F31N, K55S
VL: B1 VL with R57N, G59E
notes: also called Humab001-14; NO; 14 antibody
B3: HAPC-14-10 (antibody, V domains shown)
VH: B1 VH with F31N, Y104T
VL: B1 VL with Q93V
notes: Whole IgG, backbone hIgG1; also called HPAC 14-10
B4: HAPC-14-7 (antibody, V domains shown)
VH: B1 VH with K55S
VL: B1 VL with G59E
notes: Whole IgG, backbone hIgG1; also called HPAC 14-7
B5: HAPC-14-9 (antibody, V domains shown)
VH: B1 VH with Y104T
VL: B1 VL
notes: Whole IgG, backbone hIgG1; also called HPAC 14-9
B6: Humanized antibody 16 (HAPC-16) (antibody, V domains shown)
VH: B1 VH with F31N, K55S
VL: B1 VL with D1N, Q3V, A47P, R57N, G59E, G72R
notes: also called Humab001-16; NO; 16 antibody
B7: Humanized antibody 13 (HAPC-13) (antibody, V domains shown)
VH: B1 VH with F31N, K55S
VL: B1 VL with L4M, R57N, G59E
notes: also called Humab001-13; NO; 13 antibody
B8: HAPC1573 (antibody, from another filing, V domains shown)
VH: EVKLEESGGGLVQPGGSMKLSCVASGFTFSNYYLNWVRQSPEKGLEWVADIRLKSNNYEKHYAESVKGRFTISRDDSKSSVYLQMNNLRAEDTGIYYCIREGDYFDYWGQGTTLTVSS
VL: NIVLTQSPASLAVSLGQRATISCRASESVDSFGATFMHWYQQKPGQPPKLLIYLASNLESGVPARFSGSGSRTDFTLTIDPVEADDAATYYCQQNNEDPYTFGGGTKLEIKR

In the first experiment the target is T1, human activated protein C (human, UniProt P04070 43-197; P04070 212-461).
T1 construct: In the plasma assays aPC is generated in human plasma with Protac; also called aPC; haPC
The experiment in a line: ELISA, plate coated with haPC 1 ug/mL, anti-hIgG-Fc-HRP. Here is the method:
(§1) The binding abilities of the anti-aPC monoclonal antibodies to haPC/hPC were assayed by Elisa. […] 1. ELISA plates were coated with haPC/hPC (1 ug/mL in PBS), 100 μL/well, at 4° C. overnight. […] 2. The plates were washed 3 times with PBST (0.1% Tween 20), 200 μL/well. […] 3. The plates were blocked with 2% BSA (PBS solution), 200 μL/well, at room temperature for 1 hour. […] 4. The plates were washed 3 times with PBST (0.1% Tween 20), 200 μL/well. […] 5. The plates were incubated with anti-aPC monoclonal antibody as primary antibody (diluted from 10 μg/mL in 2% BSA), 100 μL/well, at room temperature for 1 hour. […] 6. The plates were washed 3 times with PBST (0.1% Tween 20), 200 μL/well. [0200] 7. The plates were incubated with anti-hIgG-Fc antibody-HRP (diluted 5000-fold in 2% BSA buffer) at room temperature for 1 hour. [0201] 8. The plates were washed 6 times with PBST (0.1% Tween 20), 200 μL/well. [0202] 9. The plates were incubated with a TMB substrate (prepared from solutions A and B at 1:1 (v/v)), 100 μL/well, away from light for 10 minutes. […] 10. The reaction was quenched with HCl (1 M), 100 μL/well, and OD450 was read.
B1 came in with a concentration giving a half-maximal response (EC50) of 0.0821 nM and a Span of 1.85.

In turn, B2 returned a 50% effective concentration (EC50) of 0.22 nM and a Span of 0.291.

B3 gave an EC50 of 0.28 nM and a Span of 0.745.

In the case of B4, the EC50 was found to be 0.13 nM and the Span stood at 1.58.

As for B5, the concentration for a half-maximal effect (EC50) turned out to be 0.0761 nM and the Span amounted to 1.07.

The target of another experiment is T1, human activated protein C. The experiment in a line: ELISA on plate-coated APC (1 ug/ml), OD 450; EC50 from the table drawn beside the curves; no unit in the table, axis Ab Conc.(nM).
B2: the EC50 was determined as 0.249 nM. This counts as sub-nanomolar.

B6: a half-maximal response (EC50) required 0.172 nM.

Consider B7, for which a half-maximal effect (EC50) was put at 0.199 nM.

In another experiment the target is T2, human protein C (human, UniProt P04070 43-461).
T2 construct: Zymogen form, coated on ELISA plates; also called hPC; PC
Put plainly: ELISA, plate coated with hPC 1 ug/mL, anti-hIgG-Fc-HRP. Here is the method: as §1
B1 displayed a Span of roughly 0.0133.

Take B2: the Span was roughly 0.0387.

Regarding B3, the Span was roughly 0.00145.

As for B4, the Span was roughly 0.00661.

As to B5, the Span came out at 0.012.

In the next experiment the target is T2, human protein C. The experiment in a line: ELISA on plate-coated HuPC (1 ug/ml), OD450.
B6: the binding result was “no binding (tested: 100 nM)”.

For the molecule B7, the binding result is recorded as “no binding (tested: 100 nM)”.

In another experiment the target is T1, human activated protein C. The experiment in a line: cell-based or functional assay.
Turning to B1, the “Mean clotting time (s), FIX-deficient plasma, APC-antibody concentration 0.5 ug/ml” value turned out to be 181 s; the “Mean clotting time (s), FIX-deficient plasma, APC-antibody concentration 1 ug/ml” value stood at 198 s; the “Mean clotting time (s), FIX-deficient plasma, APC-antibody concentration 5 ug/ml” value amounted to 180 s; the “Mean clotting time (s), FVIII-deficient plasma, APC-antibody concentration 0.5 ug/ml” value is 182 s. The “Mean clotting time (s), FVIII-deficient plasma, APC-antibody concentration 1 ug/ml” value turned out to be 187 s and the “Mean clotting time (s), FVIII-deficient plasma, APC-antibody concentration 5 ug/ml” value was 162 s.

Consider B2, for which the “Mean clotting time (s), FIX-deficient plasma, APC-antibody concentration 0.5 ug/ml” value came to 457 s; the “Mean clotting time (s), FIX-deficient plasma, APC-antibody concentration 1 ug/ml” value was 415 s; the “Mean clotting time (s), FIX-deficient plasma, APC-antibody concentration 5 ug/ml” value is 310 s; the “Mean clotting time (s), FVIII-deficient plasma, APC-antibody concentration 0.5 ug/ml” value was 574 s. For the same molecule, the “Mean clotting time (s), FVIII-deficient plasma, APC-antibody concentration 1 ug/ml” value amounted to 457 s and the “Mean clotting time (s), FVIII-deficient plasma, APC-antibody concentration 5 ug/ml” value was 324 s.

In the case of B7, the “Mean clotting time (s), FIX-deficient plasma, APC-antibody concentration 0.5 ug/ml” value came out at 502 s; the “Mean clotting time (s), FIX-deficient plasma, APC-antibody concentration 1 ug/ml” value came to 402 s; the “Mean clotting time (s), FIX-deficient plasma, APC-antibody concentration 5 ug/ml” value worked out at 326 s; the “Mean clotting time (s), FVIII-deficient plasma, APC-antibody concentration 0.5 ug/ml” value stood at 629 s. Further, the “Mean clotting time (s), FVIII-deficient plasma, APC-antibody concentration 1 ug/ml” value stood at 546 s and the “Mean clotting time (s), FVIII-deficient plasma, APC-antibody concentration 5 ug/ml” value was determined as 301 s.

With B3, the “Mean clotting time (s), FIX-deficient plasma, APC-antibody concentration 0.05 ug/ml” value is 733 s; the “Mean clotting time (s), FIX-deficient plasma, APC-antibody concentration 0.1 ug/ml” value was 596 s; the “Mean clotting time (s), FIX-deficient plasma, APC-antibody concentration 0.5 ug/ml” value amounted to 331 s; the “Mean clotting time (s), FIX-deficient plasma, APC-antibody concentration 1 ug/ml” value was found to be 158 s. Further, the “Mean clotting time (s), FVIII-deficient plasma, APC-antibody concentration 0.05 ug/ml” value came to 415 s; the “Mean clotting time (s), FVIII-deficient plasma, APC-antibody concentration 0.1 ug/ml” value amounted to 309 s; the “Mean clotting time (s), FVIII-deficient plasma, APC-antibody concentration 0.5 ug/ml” value was determined as 254 s.

On to B4, for which the “Mean clotting time (s), FIX-deficient plasma, APC-antibody concentration 0.5 ug/ml” value is 241 s; the “Mean clotting time (s), FIX-deficient plasma, APC-antibody concentration 1 ug/ml” value stood at 145 s; the “Mean clotting time (s), FIX-deficient plasma, APC-antibody concentration 5 ug/ml” value was determined as 146 s; the “Mean clotting time (s), FVIII-deficient plasma, APC-antibody concentration 0.5 ug/ml” value amounted to 297 s. Besides, the “Mean clotting time (s), FVIII-deficient plasma, APC-antibody concentration 1 ug/ml” value came to 198 s and the “Mean clotting time (s), FVIII-deficient plasma, APC-antibody concentration 5 ug/ml” value was 176 s.

For B5, the “Mean clotting time (s), FIX-deficient plasma, APC-antibody concentration 0.05 ug/ml” value is 670 s; the “Mean clotting time (s), FIX-deficient plasma, APC-antibody concentration 0.1 ug/ml” value was determined as 611 s; the “Mean clotting time (s), FIX-deficient plasma, APC-antibody concentration 0.5 ug/ml” value was found to be 170 s; the “Mean clotting time (s), FVIII-deficient plasma, APC-antibody concentration 0.05 ug/ml” value is 262 s. Besides, the “Mean clotting time (s), FVIII-deficient plasma, APC-antibody concentration 0.1 ug/ml” value was determined as 217 s and the “Mean clotting time (s), FVIII-deficient plasma, APC-antibody concentration 0.5 ug/ml” value was 182 s.

The target in the next experiment is T1, human activated protein C. The experiment in a line: Octet BLI, antibody on Protein A sensor, huAPC 3.13-50 nM, 1:1 model, 25 C, pH 7.4. As for the experimental part: (§2) Assay method: Octet analysis was carried out at 25° C. using a Protein A Octet biosensor in 1× Kinetics buffer. During the kinetics assay, the baseline step assay was run in 1× Kinetics buffer for 120 seconds, and then run for 240 seconds after the antibody was loaded to the biosensor. Next, the baseline 2 step assay was run in 1× Kinetics buffer for 120 seconds. […] The 1× Kinetics buffer was used as a blank control to show the natural dissociation of the antibody in the buffer. 10 mM glycine at pH 1.5 was used for the regeneration step. Octet data analysis software was used to calculate binding kinetics, and a 1:1 binding model was used for curve fitting.
The affinities of the mutant antibodies were assayed at pH 7.4.
As for B1, the affinity, expressed as Kd, was 3.64 nM; the off-rate (koff) came out at 0.00108 s⁻¹; the kon was found to be 297000 M⁻¹ s⁻¹.

The molecule B2 returned a Kd of 254 nM, an off-rate constant (koff) of 0.0162 s⁻¹ and an on-rate (kon) of 64000 M⁻¹ s⁻¹.

B3 came in with a Kd of 19 nM, a koff of 0.00428 s⁻¹ and a kon of 225000 M⁻¹ s⁻¹.

Turning to B4, binding was put at a Kd of 7.72 nM, the koff is 0.00197 s⁻¹ and the on-rate constant (kon) was 256000 M⁻¹ s⁻¹.

B5 displayed a dissociation constant (Kd) of 9.69 nM, a koff of 0.00238 s⁻¹ and a kon of 245000 M⁻¹ s⁻¹.

For the next experiment, the target named is T1, human activated protein C. Put plainly: Octet BLI. Here is the method:
as §2
For the molecule B1, the “fold increase of affinity against the unmutated No. 14 antibody HAPC-14” value was roughly 100 fold.

In the next experiment the target is human activated protein C (human) (UniProt P04070). Put plainly: cell-based or functional assay.
B8 came in with a Mean clotting time (s), FIX-deficient plasma, APC-antibody concentration 0.5 ug/ml of 584 s; a Mean clotting time (s), FIX-deficient plasma, APC-antibody concentration 1 ug/ml of 567 s; a Mean clotting time (s), FIX-deficient plasma, APC-antibody concentration 5 ug/ml of 404 s; a Mean clotting time (s), FVIII-deficient plasma, APC-antibody concentration 0.5 ug/ml of 600 s. The Mean clotting time (s), FVIII-deficient plasma, APC-antibody concentration 1 ug/ml came to 629 s; the Mean clotting time (s), FVIII-deficient plasma, APC-antibody concentration 5 ug/ml was 389 s; the antibody concentration needed to inhibit the anticoagulant activity of aPC, Protac-induced APTT in factor-deficient human plasma was greater than 100 µg/mL.

The target of a further experiment is T2, human protein C. Put plainly: ELISA on plate-coated HPC, OD450. Here is the method: as §1
On to B1, for which the binding result was “no binding (tested: 10^2 nM)”.

Consider B2, for which the binding result is “no binding (tested: 10^2 nM)”.

With B3, the binding result is reported as “no binding (tested: 10^2 nM)”.

B4: the binding result is recorded as “no binding (tested: 10^2 nM)”.

For the molecule B5, the binding result is given as “no binding (tested: 10^2 nM)”.
